From article PMC10607609, “The Functionality of IbpA from Acholeplasma laidlawii Is Governed by Dynamic Rearrangement of Its Globular–Fibrillar Quaternary Structure” (International Journal of Molecular Sciences, 2023) come the findings set out here.

In test [1] the target is full-length AlIbpA_(His6), small heat shock protein IbpA from Acholeplasma laidlawii (Acholeplasma laidlawii) (UniProt A9NFB2). In words: BLI; BLItz; biotinylated AlIbpA_(His6) loaded on a streptavidin biosensor (2.0 nm); analyte 10 µM in PBS pH 7.4; 300 s association, 300 s dissociation; BSA control subtracted. In general terms: In BLI a coated tip is dipped into the sample, and binding shifts an interference pattern.

The target of test [2] is AlDnaKST, recombinant C-terminally StrepII-tagged DnaK (HSP70) from Acholeplasma laidlawii (Acholeplasma laidlawii) (UniProt A9NFN8). In words: BLI; BLItz; biotinylated AlDnaKST or AlClpBST loaded on a streptavidin biosensor (2.0 nm); analyte in PBS pH 7.4; 300 s association, 300 s dissociation; BSA control subtracted.
The target of test [3] is T1, AlDnaKST, recombinant C-terminally StrepII-tagged DnaK (HSP70) from Acholeplasma laidlawii (Acholeplasma laidlawii, UniProt A9NFN8 1-610, biotin (EZ-Link NHS-PEG4-biotin) where it was the protein immobilised on the streptavidin biosensor).
T1 construct: DnaK (HSP70) of Acholeplasma laidlawii, from a synthetic gene dnaK cloned in pET-28a(+); Plasmid pET-28a-AlDnaKST; source: E. coli BL21 (DE3), purified (Strep-tactin agarose); not shown: StrepII, C-terminal, kept
The description is as above. The settings on record: both partners purified.

Test [4] deals with T1, AlDnaKST, recombinant C-terminally …. In words: BLI; BLItz; biotinylated AlIbpA_(His6) loaded on a streptavidin biosensor (2.0 nm); analyte 10 µM in PBS pH 7.4; 300 s association, 300 s dissociation; BSA control subtracted. As to conditions: both partners purified.
Test [5] addresses AlClpBST, recombinant C-terminally StrepII-tagged ClpB (HSP100) from Acholeplasma laidlawii (Acholeplasma laidlawii). In words: BLI; BLItz; biotinylated AlDnaKST or AlClpBST loaded on a streptavidin biosensor (2.0 nm); analyte in PBS pH 7.4; 300 s association, 300 s dissociation; BSA control subtracted.

As a reminder, the Kd is the free concentration of one partner at which half of the binding sites on the other are occupied at equilibrium, for simple one-to-one binding. Regarding “AlClpBST, recombinant C-terminally StrepII-tagged ClpB (HSP100) from Acholeplasma laidlawii (natural protein)”, the Kd stood at 1.2 µM in test [1] and 20.3 µM in test [2].
In the case of human insulin (ligand), in test [1], the Kd came out at 0.1 µM.
Take “AlIbpA∆N12_(His6)–insulin complex, chemically cross-linked with glutaraldehyde (from UniProt A9NFB2 13-137)”: the fold increase in KD against AlIbpA∆N12 (His6) alone in test [2] came out at 2 fold.

B1: AlIbpAΔN12_(His6), AlIbpA lacking 12 N-terminal amino acid residues (domain or fragment, Acholeplasma laidlawii, UniProt A9NFB2 13-137, looked up)
chain: DDFFEDFNVLNPVTTSNLMRTDIKETQNGYSLSVELPGFKKEDVKVSLEDGYLTIEAHTSKNSETKDQATKYIRKERYEGTMKRSYYVGNLHLDEINGTFENGMLHIELPKETKKEPEKRYLELK
notes: The limit 13 is worked out from 'removal of 12 N-terminal amino acid residuals'; Forms mostly fibrils; also called AlIbpA∆N12_(His6); AlIbpAN12_(His6); source: E. coli BL21 (DE3), purified (Ni-NTA agarose)
Consider B1, for which the “fold decrease of binding affinity against full-length AlIbpA_(His6)” value in test [3] was determined as 15 fold.

B2: full-length AlIbpA_(His6), small heat shock protein IbpA from Acholeplasma laidlawii (natural protein, UniProt A9NFB2 1-137, looked up)
chain: MLSLLNKNRSFFDDFFEDFNVLNPVTTSNLMRTDIKETQNGYSLSVELPGFKKEDVKVSLEDGYLTIEAHTSKNSETKDQATKYIRKERYEGTMKRSYYVGNLHLDEINGTFENGMLHIELPKETKKEPEKRYLELK
modifications: biotin (EZ-Link NHS-PEG4-biotin) where it was the protein immobilised on the streptavidin biosensor
notes: Forms globular and fibrillar oligomers; also called HSP20; sHSP; source: E. coli BL21 (DE3), purified (Ni-NTA agarose)
Regarding B2, the results for the Kd in test [4], in test [3] and in test [5] were 3.1 µM, 0.1 µM and 0.2 µM, respectively.
